Legend:
[1] = molecular target: SARS-CoV-2 spike receptor-binding domain (RBD), wild type (SARS-CoV-2, Wuhan-Hu-1 (wild type), UniProt P0DTC2); assay: ELISA
[2] = molecular target: SARS-CoV-2 spike HexaPro (S), prefusion-stabilized trimer (SARS-CoV-2, Wuhan-Hu-1, HexaPro design, stabilised); assay: cell-based or functional assay

Binder	binding result [1]	IC50 of neutralisation of the virus in vitro [2]
Nb34 (VHH) VHH: DVQLVESGGGLVQAGGSLRLSCAASGFTFSNYVMYWGRQAPGKGREWVSGIDSDGSDTAYASSVKGRFTISRDNAKNTLYLQMNNLKPEDTALYYCVKSKDPYGSPWTRSEFDDYWGQGTQVTVSS	binds	
Nb105 (VHH) VHH: HVQLVESGGGLVQAGGSLRLSCAVSGRTFSTYGMAWFRQAPGKERDFVATITRSGETTLYADSVKGRFTISRDNAKNTVYLQMNSLKIEDTAVYYCAVRRDSSWGYSRDLFEYDYWGQGTQVTVSS	binds	
Nb17 (VHH) VHH: HVQLVESGGGLVQAGGSLRLSCAASGSIFSSNAMSWYRQAPGKQRELVASITSGGNADYADSVKGRFTISRDKNTVYPEMSSLKPADTAVYYCHAVGQEASAYAPRAYWGQGTQVTVSS		~25 ng/mL
Nb20 (VHH) VHH: QVQLVESGGGLVQAGGSLRLSCAVSGAGAHRVGWFRRAPGKEREFVAAIGASGGMTNYLDSVKGRFTISRDNAKNTIYLQMNSLKPQDTAVYYCAARDIETAEYIYWGQGTQVTVSS	binds	

Source: PMC7987009 (bioRxiv, 2021)
